Reference: the RNAGym collection of RNA variant scans (doi:10.1073/pnas.2313332121)

B1: TPR t1 (parent)
chain: GACCAAUCUGCCCUCAGAGCUCGAGAACAUCUUCGGAUGCAGAGGAGGCAGGCUUCGGUGGCGCGAUAGCGCCAACGUCCUCAACCUCCAAUGCAUCCCACCACAUGAUGAUGCCUGAAGAGCCUUGGUUUUUUG

Variants of: B1
Test: polymerase ribozyme fitness, log enrichment relative to wild type (log ratio); higher = more active; in vitro selection for triplet polymerase activity
Outline: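 After PCR construction and transcription, each subunit's mutant library from a heterodimeric triplet polymerase ribozyme was annealed with a biotinylated primer, the partner subunit and triplets. Incubation was frozen, at −7 °C, and extended constructs were gel-excised, bound to streptavidin beads and amplified by RT-PCR, in one selection round done in triplicate. Fitness is the logarithm of a genotype's enrichment divided by that of the wild type, from inverse-variance-weighted replicate averages of Illumina-sequenced inputs and outputs. The base of the logarithm is 2, and genotypes needed ≥10 input reads and ≥1 read per output.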

Variant | polymerase ribozyme fitness (log ratio)
G45A G52C G57U | -2.04
G45U C49G C53U C88G | -0.226
G44U U92C | -1.82
A46C C79A C85G | -5.69
G44U G60C | -0.794
G45A C49A G117A | -2.04
G45U C88U | -0.272
G45C U106A | -1.34
G45U C53A G69A C89A C104U C124A G135A | -6.34
G45U C49U C115G | -3.11
G44U G45C C62U | -3.45
G45U U78A | -1.86
A46C C72U | -1.13
A46C C72A | 0.257
G45U U78C C79A C123A U126C | -3.45
G45C G61A | 0.0573
G45A U96G | -1.51
G45U U81A | -3.03
G45U G61C A66U | -3.49
G45U G63U C101G U112A | -2.32
A46C G63U | -2.01
G45A A68U C104U U109C | -6.38
G45C C70U | -1.4
G45C C115U A121G G128A | -4.67

Variant | polymerase ribozyme fitness (log ratio)
G45A C49G U106C U112A | -0.738
G45C U78C C124A | 0.349
G45C G47A C79G | -5.96
G45A C53G A83G G117A | -3.23
G44U G47A C56A C124U G127C U131A G135C | -3.28
G45A U55G G77A | -1.78
G45C C88U | -0.355
G44U G47U C49U C72A A74G U96G U132A | -5.92
G45A G71U A84G | -2.48
G45A G69A U109G A118C | -6.05
G44U G120U U131A | -1.89
G45U G47C G52A A83U C124U | -3.57
G45U C88A U130G | -0.102
G45U G63A C79A A83G | -6.05
G45U U54C U132C | -1.01
G44U G57U C89U C104U | -1.47
A46C G63A U96A | -2.58
G44U G45C | -2.69
G45U G60C U78G | -3.53
G44U G61A C98A G117U | -7.12
G45U G128U | -2.42
G45C U129C | -2.28
G45C A50C | -0.909
A46C G60C | -0.75

Variant | polymerase ribozyme fitness (log ratio)
G45U C62U | -1.63
G45U C102A | -3.34
G45U G77C | -1.17
G44U G52U U55A U132A | -2.55
G44U G117A | -2.13
G45C A118G A121U | -1.69
G45A G71C C101A C115U G127C | -5.44
G45C G63C | -2.1
G45A G113A | -1.71
G45A G113U | -2.04
G44U G47U C49G | -5.36
G45A C62U U112G C115G | -2.08
G45U C89U U96A C114U C124G | -2.49
G45U G51A | -3.89
G45U G71C | -2.68
G44U G61U G110U | -1.97
G45A G48C C53U C62U C102U C124G U131C | -1.71
G45C G113C | -2.91
G45U C53U G61A A105U | -2.59
G44U G60C U87G | -2.16
G45U U87A | -1.32
G45A C85U U92C G128A | -5.92
A46C C53U U54G G120U | -0.194
G45A C73G C85A | -2.3

Variant | polymerase ribozyme fitness (log ratio)
G45U A74C G77A U112C | 1.05
G45A G60A | -1.47
G45U C53A C64A U112A G117A | -6.13
G45C C101G G122A | -3.08
G44U G61C | -2.36
G44U G61A | -1.47
G44U G61U | -0.394
G45C U87C A108U | -6.32
G44U C89A | 0.219
G45U C49U | -1.85
G45C C102A | -3.26
G44U G57A C94G | -3.86
G45A A50G C62U | -0.502
G45U C64A A111U U133A | -5.34
G45A C73A G113U | -4.75
G45C C80U U87A | -2.93
G45A C104U | -0.463
G45A A100U | -2.26
A46C A50G | -0.277
A46C C62G | -2.43
G45A C62U U96G | -1.28
G45A C56U | -0.103
G45U C53A A90G C97U | -1.75
A46C C80G U130C | -6.42

Variant | polymerase ribozyme fitness (log ratio)
G44U U55A A68U G69U C86G G120U | -7.36
G45U U129G | -2.58
A46C C76G G122A | -1.33
G45C G63A U106A | -1.21
G45A G48U U112G | -2.7
G45C G51A | -3.29
G45C G48U G60A G61A A83C | -3.56
G45U G52A U96G | -2.98
G45C G77U | -1.32
G44U G60A U129C | -1.49
G45U U116C | -1.67
G45U U116A | -4.04
G44U G48U C114A | -2.93
G45A C56U A90U | -1.57
G45U G117A | -1.62
G45U G117U | -3.43
G45C C73U G117A G135U | -4
G45A C73U G93C | -1.34
G45A U130C | -1.02
G45C G110C | -5.03
G45A C94U | -0.815
G45C C76G U125G | -1.06
G44U C124G | -0.383
G45U A84C C94A | -2.59

Variant | polymerase ribozyme fitness (log ratio)
G45U U129G U132A | -3.85
G45A G52U U130G | -1.91
G44U G58C G113A | -1.31
G45U G58A C86U A95C | -3.29
G45A G69U U112A | 1.62
G45A U54A C56U G57U U87G A91G G93A | -3.65
G45U U54A | -1.35
G45A C64U A83G U96G G122A | -2.56
G45U C72A C114A C123G U133A | -2.6
G45U G127U | -3
G44U U106G A119G | -1.15
G45A C86A | -1.9
G44U G63C C79U U112A | 0.269
G45A G71U G120A U133A | -0.0049
G45A | -0.788
G45U | -1.31
G45C | -1.57
G45U A46C U54C U78C | -2
G45U A90C | -1.56
G44U C114U | -2.25
A46C A100C C115U U129A | -5.33
G45A U59G C62G | -3.84
G45C G71U A91G C101U G110A | -5.08
G45U A66G | -2.32

Variant | polymerase ribozyme fitness (log ratio)
G45A C53A U78C U109G G110U A121U | -3.1
G45C U132A | -1.99
G45A C56U G69U G93U | -4.17
G45A C53G U59G C104A U112A | -0.739
G45U G57U A118U | -0.288
G45A G61C | -1.97
G45A A74G A95U | -1.3
G45C C53U G63C U116G | -3.05
G45C C72A G135C | -0.387
G44U U109A | -5.43
G45A C73U | -1.34
G45C G69A | -3.75
G45A C64U C86U C115A C123G | -1.22
A46C A50U C72A | -1.15
A46C C53A G60U C102U | -3.11
G44U G45U G60C C72U C101U A121G U131C | -0.75
G45A U131A | -0.734
G45A U131G | -0.996
G44U U112G | -1.6
G44U U112C | 0.722
G44U U87C U106C | -1.29
G44U G69C A121G | 0.0622
A46C C56A | -1.56
